This note sets out measurements from article PMC11538695 (Advanced Science, 2024).

Holding throughout (conditions): both partners purified
Experiment [1] deals with T1, N-terminal region of VCPIP1 (residues 40-464) (human, UniProt Q96JH7 40-464).
T1 construct: VCPIP1, human, N-terminal region with the OTU domain, residues 40-464; also called N-terminal OTU domain (residues 40-464); source: E. coli BL21 (DE3) (said of the recombinant proteins in general), purified
T1 sequence (looked up): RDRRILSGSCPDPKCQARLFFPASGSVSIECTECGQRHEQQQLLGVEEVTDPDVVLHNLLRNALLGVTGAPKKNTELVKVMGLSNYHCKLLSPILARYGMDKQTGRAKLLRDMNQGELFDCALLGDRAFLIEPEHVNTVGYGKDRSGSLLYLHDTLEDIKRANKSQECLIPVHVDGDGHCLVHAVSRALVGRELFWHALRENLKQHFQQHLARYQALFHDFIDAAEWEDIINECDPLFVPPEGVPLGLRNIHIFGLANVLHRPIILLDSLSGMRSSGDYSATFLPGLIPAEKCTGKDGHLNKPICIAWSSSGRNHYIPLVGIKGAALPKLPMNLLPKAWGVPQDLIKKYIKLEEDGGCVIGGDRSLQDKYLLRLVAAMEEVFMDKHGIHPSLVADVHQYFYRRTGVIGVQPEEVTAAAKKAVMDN
In words: SEC; gel filtration co-migration of purified fragments, fractions on SDS-PAGE with Coomassie staining. On the technique in general: In gel filtration, larger molecules generally elute earlier.

Experiment [2] concerns the target T2, full-length human P97/VCP (Valosin-Containing Protein) (human, UniProt P55072 1-806).
T2 construct: P97/VCP (valosin-containing protein), human, full length; Cloned into pRSF-32 M (N-terminal thioredoxin and 6xHis) or pET-28a; source: E. coli BL21 (DE3), purified (Ni-NTA, size exclusion chromatography)
Put plainly: pull-down; 50 µg GST-tagged VCPIP1 protein held on glutathione Sepharose 4B, full-length P97/VCP at molar ratio 1:3; 20 mM Tris pH 7.5, 100 mM NaCl, 1 mM DTT; Coomassie staining.

Experiment [3] addresses T3, Syntaxin5 (STX5) contained SNARE complex (syntaxin-5, GOSR1, Ykt6, Bet1, without transmembrane domains) (human, UniProt Q13190 55-330; O95249 150-230; O15498 1-193; O15155 1-93).
T3 construct: syntaxin-5, human, residues 55-330; GosR1, human, residues 150-230; Ykt6, human, residues 1-193; Bet1, human, residues 1-93; also called intact SNARE complex; SNARE substrate; source: E. coli BL21 (DE3), pellets mixed and lysed together, purified (amylose resin, size exclusion chromatography); not shown: MBP, N-terminal, kept; copies: + + +
T3 sequence (looked up) 1: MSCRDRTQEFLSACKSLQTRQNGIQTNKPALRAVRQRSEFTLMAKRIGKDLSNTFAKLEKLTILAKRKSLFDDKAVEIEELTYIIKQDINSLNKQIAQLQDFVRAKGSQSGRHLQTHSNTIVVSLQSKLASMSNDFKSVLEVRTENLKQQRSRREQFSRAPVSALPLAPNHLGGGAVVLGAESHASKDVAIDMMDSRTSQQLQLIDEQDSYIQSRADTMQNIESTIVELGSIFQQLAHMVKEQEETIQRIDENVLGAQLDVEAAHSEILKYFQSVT
T3 sequence (looked up) 2: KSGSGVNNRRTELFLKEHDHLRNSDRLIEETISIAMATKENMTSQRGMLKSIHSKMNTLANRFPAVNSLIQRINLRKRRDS
T3 sequence (looked up) 3: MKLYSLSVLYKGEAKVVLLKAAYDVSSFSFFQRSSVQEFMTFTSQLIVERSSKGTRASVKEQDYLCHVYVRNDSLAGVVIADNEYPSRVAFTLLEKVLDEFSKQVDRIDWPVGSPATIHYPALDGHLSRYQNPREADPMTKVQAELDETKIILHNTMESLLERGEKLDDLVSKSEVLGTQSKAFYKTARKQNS
T3 sequence (looked up) 4: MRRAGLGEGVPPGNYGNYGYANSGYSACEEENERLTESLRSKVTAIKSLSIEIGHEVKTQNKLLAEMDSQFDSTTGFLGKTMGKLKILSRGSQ
In words: pull-down; MBP pull-down, SNARE complex held by MBP-syntaxin5; P97/VCP-P47 without or with VCPIP1 WT or Y623E/F638E added (VCPIP1 WT enhanced, the double mutant did not).

The target of experiment [4] is T2, full-length human P97/VCP …. The description is as above.

B1: C-terminal tail of P97/VCP (residues 765-806) (domain or fragment, human, UniProt P55072 765-806, looked up)
chain: SRGFGSFRFPSGNQGGAGPSQGSGGGTGGSVYTEDNDDDLYG
notes: P97/VCP, human, C-terminal tail, residues 765-806; also called P97/VCP tail; source: E. coli BL21 (DE3) (said of the recombinant proteins in general), purified
For B1, the binding result in experiment [1] is listed as “binds”.

B2: GST-VCPIP1 F1 fragment (IDR1-OTU) (domain or fragment, human, UniProt Q96JH7 1-464, looked up)
chain: MSQPPPPPPPLPPPPPPPEAPQTPSSLASAAASGGLLKRRDRRILSGSCPDPKCQARLFFPASGSVSIECTECGQRHEQQQLLGVEEVTDPDVVLHNLLRNALLGVTGAPKKNTELVKVMGLSNYHCKLLSPILARYGMDKQTGRAKLLRDMNQGELFDCALLGDRAFLIEPEHVNTVGYGKDRSGSLLYLHDTLEDIKRANKSQECLIPVHVDGDGHCLVHAVSRALVGRELFWHALRENLKQHFQQHLARYQALFHDFIDAAEWEDIINECDPLFVPPEGVPLGLRNIHIFGLANVLHRPIILLDSLSGMRSSGDYSATFLPGLIPAEKCTGKDGHLNKPICIAWSSSGRNHYIPLVGIKGAALPKLPMNLLPKAWGVPQDLIKKYIKLEEDGGCVIGGDRSLQDKYLLRLVAAMEEVFMDKHGIHPSLVADVHQYFYRRTGVIGVQPEEVTAAAKKAVMDN
notes: VCPIP1, human, residues 1-464 (methods); the results print 1-465; pGEX-6P-1 vector; source: E. coli BL21 (DE3), purified (glutathione Sepharose 4B, size exclusion chromatography); not shown: GST, N-terminal, kept
Take B2: the binding result in experiment [2] is “binds”.

B3: GST-VCPIP1 F3 fragment (IDR2-UBL-UFD2) (domain or fragment, human, UniProt Q96JH7 680-1000, looked up)
chain: QGQESESQLPTKIILTGQKTKTLHKEELNMSKTERTIQQNITEQASVMQKRKTEKLKQEQKGQPRTVSPSTIRDGPSSAPATPTKAPYSPTTSKEKKIRITTNDGRQSMVTLKSSTTFFELQESIAREFNIPPYLQCIRYGFPPKELMPPQAGMEKEPVPLQHGDRITIEILKSKAEGGQSAAAHSAHTVKQEDIAVTGKLSSKELQEQAEKEMYSLCLLATLMGEDVWSYAKGLPHMFQQGGVFYSIMKKTMGMADGKHCTFPHLPGKTFVYNASEDRLELCVDAAGHFPIGPDVEDLVKEAVSQVRAEATTRSRESSPS
notes: VCPIP1, human, residues 680-1000; pGEX-6P-1 vector; source: E. coli BL21 (DE3), purified (glutathione Sepharose 4B, size exclusion chromatography); not shown: GST, N-terminal, kept
Take B3: in experiment [2], the binding result is “binds”.

B4: full-length human P47 (natural protein, UniProt Q9UNZ2 1-370, looked up)
chain: MAAERQEALREFVAVTGAEEDRARFFLESAGWDLQIALASFYEDGGDEDIVTISQATPSSVSRGTAPSDNRVTSFRDLIHDQDEDEEEEEGQRFYAGGSERSGQQIVGPPRKKSPNELVDDLFKGAKEHGAVAVERVTKSPGETSKPRPFAGGGYRLGAAPEEESAYVAGEKRQHSSQDVHVVLKLWKSGFSLDNGELRSYQDPSNAQFLESIRRGEVPAELRRLAHGGQVNLDMEDHRDEDFVKPKGAFKAFTGEGQKLGSTAPQVLSTSSPAQQAENEAKASSSILIDESEPTTNIQIRLADGGRLVQKFNHSHRISDIRLFIVDARPAMAATSFILMTTFPNKELADESQTLKEANLLNAVIVQRLT
notes: P47 (adaptor of P97/VCP), human, full length; Cloned into pRSF-32 M or pET-28a; source: E. coli BL21 (DE3), purified (Ni-NTA, size exclusion chromatography)
As to B4, the binding result in experiment [3] and in experiment [4] was “binds” throughout.
